In general, Kd refers to the equilibrium constant for the complex coming apart.

This assay has as its target purified trimeric native F protein of respiratory syncytial virus (respiratory syncytial virus) (UniProt P03420). The assay is described as follows: SPR; normalized maximum SPR signal of purified scaffolds, point mutants and RSV-F at various concentrations of hRSV90 antibody, sigmoid fits. In general terms: In SPR one partner is held on a chip, and binding of the other changes the refractive index at the surface.

Chain of purified trimeric native F protein of respiratory syncytial virus (respiratory syncytial virus) (P03420 138-513): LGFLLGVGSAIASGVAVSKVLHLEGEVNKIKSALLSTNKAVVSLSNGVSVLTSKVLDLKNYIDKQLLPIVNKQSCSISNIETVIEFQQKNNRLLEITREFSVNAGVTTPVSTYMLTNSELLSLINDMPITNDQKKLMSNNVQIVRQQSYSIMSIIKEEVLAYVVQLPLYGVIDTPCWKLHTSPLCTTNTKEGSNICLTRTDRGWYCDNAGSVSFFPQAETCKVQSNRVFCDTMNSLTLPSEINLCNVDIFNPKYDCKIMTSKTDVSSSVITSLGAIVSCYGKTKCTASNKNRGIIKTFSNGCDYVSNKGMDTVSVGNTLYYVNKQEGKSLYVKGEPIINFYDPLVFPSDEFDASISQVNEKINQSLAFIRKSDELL

On to neutralizing antibody hRSV90, for which the Kd came out at 23 nM.

The values above are taken from article PMC9621694.
